This note sets out measurements from publication PMC2171422 (The Journal of Cell Biology, 2005).

The target in the assay is T1, protein A–Sro7p (yeast (budding yeast), UniProt Q12038 1-1033).
T1 sequence: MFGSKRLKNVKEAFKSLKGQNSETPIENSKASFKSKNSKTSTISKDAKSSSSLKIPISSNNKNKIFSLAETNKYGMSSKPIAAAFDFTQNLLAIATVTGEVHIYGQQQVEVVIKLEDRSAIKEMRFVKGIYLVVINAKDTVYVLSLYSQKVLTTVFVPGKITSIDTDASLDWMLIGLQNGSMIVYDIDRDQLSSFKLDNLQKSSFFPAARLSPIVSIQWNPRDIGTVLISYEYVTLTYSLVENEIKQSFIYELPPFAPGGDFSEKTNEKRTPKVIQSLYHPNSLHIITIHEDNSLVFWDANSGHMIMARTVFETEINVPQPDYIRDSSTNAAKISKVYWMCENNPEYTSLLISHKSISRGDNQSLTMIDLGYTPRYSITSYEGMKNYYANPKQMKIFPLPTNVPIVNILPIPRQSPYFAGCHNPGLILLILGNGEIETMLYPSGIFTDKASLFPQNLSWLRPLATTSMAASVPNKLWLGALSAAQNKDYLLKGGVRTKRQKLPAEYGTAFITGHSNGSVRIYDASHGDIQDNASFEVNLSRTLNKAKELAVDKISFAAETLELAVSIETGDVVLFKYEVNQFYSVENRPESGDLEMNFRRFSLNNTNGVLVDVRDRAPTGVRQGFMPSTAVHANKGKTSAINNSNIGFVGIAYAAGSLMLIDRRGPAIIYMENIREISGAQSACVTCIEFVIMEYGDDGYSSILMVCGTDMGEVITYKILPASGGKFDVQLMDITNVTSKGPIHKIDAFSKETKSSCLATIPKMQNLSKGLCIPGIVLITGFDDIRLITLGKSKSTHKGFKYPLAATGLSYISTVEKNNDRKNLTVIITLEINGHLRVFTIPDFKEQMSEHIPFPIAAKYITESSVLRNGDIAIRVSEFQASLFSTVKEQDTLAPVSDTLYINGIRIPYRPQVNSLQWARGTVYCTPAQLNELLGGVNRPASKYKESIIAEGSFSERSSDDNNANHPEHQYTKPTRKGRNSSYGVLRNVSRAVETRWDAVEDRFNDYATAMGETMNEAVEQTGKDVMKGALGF
Description: pull-down.

B1: Exo84p NH2-terminal domain (aa 1–320) GST fusion protein (domain or fragment)
chain: MVEFSLKKARNNWKHVKKSASSPAKQKTPPSPAKPKQKTKKNPYSDLKDPATSYTLPTINARERSRVATSMQRRLSIHNTNYAPPTLDYSMPLPDMPNMIVPNDNVDSSHNNSSFTTENESVSSKGPSNSLNLSTADLSLNDSSYNKVPARSAMRNTVNPSGSNDPFNNSTSLRKMLANPHFNAKDFVHDKLGNASAITIDKFTSNLTDLSIQVQEEVKLNINKSYNEIMTVNNDLNVAMLELKRVRANINDLNEVLDQCTKIAEKRLQLQDQIDQERQGNFNNVESHSNSPALLPPLKAGQNGNLMRRDRSSVLILEKF
A word on the Kd: it is the concentration at which binding is half-saturated. In turn, B1 yielded a Kd of 46 ± 6 nM.
